Biological target: wild-type cardiac actin (ACTC), filaments (UniProt P68032 1-377)
Assay: co-sedimentation

- Kd: 5.02 µM
- stoichiometry N: 0.76 mol/mol actin
B1: N-terminal C0C2 fragment of cardiac myosin binding protein-C (cMyBP-C) (domain or fragment)
chain: MPEPGKKPVSAFNKKPRSAEVTAGSAAVFEAETERSGVMVRWQRDGSDITANDKYGLAAEGKRHTLTVRDASPDDQGSYAVIAGSSKVKFDLKVTEPAPPEKAESEVAPGAPEEVPAPATELEESVSSPEGSVSVTQDGSAAEHQGAPDDPIGLFLMRPQDGEVTVGGSIVFSARVAGASLLKPPVVKWFKGKWVDLSSKVGQHLQLHDSYDRASKVYLFELHITDAQTTSAGGYRCEVSTKDKFDSCNFNLTVHEAIGSGDLDLRSAFRRTSLAGAGRRTSDSHEDAGTPDFSSLLKKRDSFRRDSKLEAPAEEDVWEILRQAPPSEYERIAFQHGVEACHRPLKRLKGMKQDEKKSTAFQKKLEPAYQVNKGHKIRLTVELADPDAEVKWLKNGQEIQMSGSKYIFESVGAKRTLTISQCSLADDAAYQCVVGGEKCSTELFVKEP
